# T1: Human Macrophage Receptor with Collagenous Structure (MARCO), full length, on cells (human, UniProt Q9UEW3 1-520)
# T1 construct: the cell type is named under assay; also called huMARCO; HuMARCO
# T1 sequence: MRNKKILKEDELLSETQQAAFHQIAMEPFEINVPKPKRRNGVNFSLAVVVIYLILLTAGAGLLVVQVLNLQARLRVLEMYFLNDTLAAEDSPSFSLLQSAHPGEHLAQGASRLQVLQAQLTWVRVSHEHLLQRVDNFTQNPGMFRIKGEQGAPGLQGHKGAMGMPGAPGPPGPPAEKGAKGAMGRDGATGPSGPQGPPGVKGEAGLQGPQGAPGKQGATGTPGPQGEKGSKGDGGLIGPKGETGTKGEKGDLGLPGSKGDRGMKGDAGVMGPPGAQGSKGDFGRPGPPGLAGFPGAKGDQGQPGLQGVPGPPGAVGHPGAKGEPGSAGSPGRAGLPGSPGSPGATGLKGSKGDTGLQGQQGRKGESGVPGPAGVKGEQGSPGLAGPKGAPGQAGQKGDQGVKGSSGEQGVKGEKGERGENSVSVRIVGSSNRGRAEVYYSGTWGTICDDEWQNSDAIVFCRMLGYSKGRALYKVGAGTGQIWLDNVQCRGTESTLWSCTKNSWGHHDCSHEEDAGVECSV
# T2: N-terminally polyhistidine tagged human MARCO ECD (147-520), recombinant (human, UniProt Q9UEW3 147-520)
# T2 construct: also called PI-RG-3000; recombinant human MARCO; not shown: N-terminal polyhistidine tag
# T2 sequence: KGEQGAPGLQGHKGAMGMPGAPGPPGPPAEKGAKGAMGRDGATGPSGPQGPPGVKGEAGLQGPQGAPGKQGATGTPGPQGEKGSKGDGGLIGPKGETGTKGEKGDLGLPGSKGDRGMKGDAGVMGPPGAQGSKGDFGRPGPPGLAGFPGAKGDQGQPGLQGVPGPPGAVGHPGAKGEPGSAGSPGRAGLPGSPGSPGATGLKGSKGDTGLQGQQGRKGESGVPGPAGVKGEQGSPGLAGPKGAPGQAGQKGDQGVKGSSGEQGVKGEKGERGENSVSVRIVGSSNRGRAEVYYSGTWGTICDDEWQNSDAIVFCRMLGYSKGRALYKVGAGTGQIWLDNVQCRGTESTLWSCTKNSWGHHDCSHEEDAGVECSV
# T3: N-terminal his-tagged mouse MARCO protein, recombinant (mouse, UniProt Q60754 150-518)
# T3 construct: The entry holds the His tag, the CLD and the SRCR domain; also called mMARCO (RG3016); PI-RG-3016
# T3 sequence: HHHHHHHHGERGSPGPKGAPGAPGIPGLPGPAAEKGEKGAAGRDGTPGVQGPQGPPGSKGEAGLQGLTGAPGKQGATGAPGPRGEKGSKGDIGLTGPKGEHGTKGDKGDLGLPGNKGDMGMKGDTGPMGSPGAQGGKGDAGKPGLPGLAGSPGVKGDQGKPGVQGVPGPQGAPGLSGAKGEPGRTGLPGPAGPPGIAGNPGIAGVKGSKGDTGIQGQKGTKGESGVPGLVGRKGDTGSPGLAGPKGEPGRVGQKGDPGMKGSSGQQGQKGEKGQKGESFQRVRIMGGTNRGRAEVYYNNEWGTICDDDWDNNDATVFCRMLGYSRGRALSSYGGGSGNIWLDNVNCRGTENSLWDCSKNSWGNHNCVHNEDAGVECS
# Tests used:
# [1] = biological target: T1, Human Macrophage Receptor with …; assay: flow cytometry, 293T (HuMARCO)
# Protocol: Supernatants were removed and cell pellets were resuspended in Ca²⁺+ and Mg²⁺+ Dulbecco's phosphate-buffered saline (D-PBS) at 1×10⁶ cells/ml. 100,000 cells/well were plated onto U-bottom 96-well plates for staining and all centrifugation steps were performed at 1500 rpm at 4° C. for 5 min and samples were kept protected from light throughout the protocol. Cells were pelleted and resuspended in 100 μl of Zombie NIR viability dye (BioLegend) prepared by diluting Zombie NIR dimethyl sulfoxide (DMSO) stock 1000-fold in D-PBS. […] Flow cytometry data were analyzed using FlowJo software (version 10.6.1) and data were processed and further analyzed in Microsoft Excel and GraphPad Prism software (version 8). Half-maximal effective concentrations (EC₅₀) were calculated based on geometric mean fluorescence intensities (gMFI). In case when the plates were not able to be analyzed on the cytometer, cells were pelleted after the washes and fixed in 100 μl of 2% paraformaldehyde (PFA), prepared by diluting the 16% (w/v) stock (Thermo Fisher) in DPBS, for 15 min at RT. […]
# [2] = biological target: T2, N-terminally polyhistidine tagged human …; assay: ELISA on recombinant human MARCO, 2 mM EDTA
# Protocol: After the plates were incubated at room temperature for 1 hour or 4° C. overnight, the plates were wash 3 times with ELISA wash buffer (PBS/0.05% TWEEN-20), then hybridoma supernatant (1:5 dilution) or purified antibody (1 ug) was diluted in DPBS/Ca2+/2% FBS, DPBS without Ca2+/2 mM EDTA/2% FBS, DPBS without Ca2+/10 mM EDTA/2% FBS, and DPBS without Ca2+/50 mM EDTA/2% FBS. Plates again were incubated at room temperature for 1 hour.
# [3] = biological target: T3, N-terminal his-tagged mouse MARCO …; assay: Biacore; antigen construct not stated
Binder,EC50 [1],ELISA signal (A450) [2],koff [3],kon [3]
"PI-HX-3031 (antibody, Parental rat hybridoma, rat IgG2a) heavy: QVQLKESGPGLVQPSQTLSLTCTVSGFSLTSYHVSWVRQPPGKGLEWMGAIWTGGSIAYNSLLKSRLSISRDTSKSQVFLKMNSLQTEDTATYYCARDLSDYYSSYTSFDYWGQGVMVTVSTAETTAPSVYPLAPGTALKSNSMVTLGCLVKGYFPEPVTVTWNSGALSSGVHTFPAVLQSGLYTLTSSVTVPSSTWSSQAVTCNVAHPASSTKVDKKIVPRECNPCGCTGSEVSSVFIFPPKTKDVLTITLTPKVTCVVVDISQNDPEVRFSWFIDDVEVHTAQTHAPEKQSNSTLRSVSELPIVHRDWLNGKTFKCKVNSGAFPAPIEKSISKPEGTPRGPQVYTMAPPKEEMTQSQVSITCMVKGFYPPDIYTEWKMNGQPQENYKNTPPTMDTDGSYFLYSKLNVKKETWQQGNTFTCSVLHEGLHNHHTEKSLSHSP light: DIQMTQSPASLSTSLGETVSIECLASEGISNDLAWYQQKSGKSPQLLIYAASRLQDGVPSRFSGSGSGTRYSLKISGMQPEDEADYFCQQSYKYPLTFGSGTKLEIKRADAAPTVSIFPPSTEQLATGGASVVCLMNNFYPRDISVKWKIDGTERRDGVLDSVTDQDSKDSTYSMSSTLSLTKADYESHNLYTCEVVHKTSSSPVVKSFNRNEC",0.56 nM,0.0678,,
"PI-HX-3021 (antibody, V domains shown, Rat IgG2a hybridoma antibody; Not the effector dead PI-3021; also called PI-3007 (name of the recombinant form)) VH: QVRLVQSGTALVRPGASVRMSCTASGYSFTDYWVSWVKQSHGQSLEWIGEIYPNSGTTNFNEKFEGKATLTVDKSTSTAYMELSRLTSEDSAIYYCTGEGTFDYWGQGVMVTVSS VL: EIVLTQSPTTMAASPGEKVTITCRPSSSLSNMHWFQQKSGTSPKPWIYDTSKLASGVPDRFSGSGSGTSYSLTISSMEAEDAATYYCLQRSSYPPTFGAGTKLELK",,,2.11e-05 s⁻¹,191000 M⁻¹ s⁻¹
"PI-HX-3016 (antibody, rat IgG1, V domains shown, Rat IgG1 hybridoma antibody) VH: EVQLVESGGGLVKPGASLKLSCVASGFTFSDDWMNWVRQTPGKAMEWIGDIKYDGSYTNYVPSLKNRLTISRDNAKNTLYLQMTNVRSEDTATYYCTSGGVFDYWGQGVMVTVSS VL: EIVLSQSPTTMAASPGEKVTITCRASSSVSYMHWFQQKSGTSPKPWIYDTSKLASGVPDRFSGSGSGTSYSLTISSMEAEDAATYYCLQRSGYPPTFGAGTKLEVK",,,1.27e-06 s⁻¹,184000 M⁻¹ s⁻¹

# Now from value to binder:
EC50 [1],ELISA signal (A450) [2],koff [3],kon [3],Binder
,0.0595,,,"PI-HX-3043 (antibody, rat IgG2a, Parental rat hybridoma, rat IgG2a) heavy: QVNLLQSRAALVKPGASVKLSCKASGYTFTDYYLHWVKQSHAKSLEWIGYINPNNAYTSYNEKFKSKATLTVDKSTNTAYMELSRLTSADSATYYCARDTTDYYNLHFAYWGQGTLVTVSSAETTAPSVYPLAPGTALKSNSMVTLGCLVKGYFPEPVTVTWNSGALSSGVHTFPAVLQSGLYTLTSSVTVPSSTWSSQAVTCNVAHPASSTKVDKKIVPRECNPCGCTGSEVSSVFIFPPKTKDVLTITLTPKVTCVVVDISQNDPEVRFSWFIDDVEVHTAQTHAPEKQSNSTLRSVSELPIVHRDWLNGKTFKCKVNSGAFPAPIEKSISKPEGTPRGPQVYTMAPPKEEMTQSQVSITCMVKGFYPPDIYTEWKMNGQPQENYKNTPPTMDTDGSYFLYSKLNVKKETWQQGNTFTCSVLHEGLHNHHTEKSLSHSP light: DIQMTQSPASLSASLGETVSIECLTSEGISNDLAWYQQKSGKSPQLLIYDASRLEDGVPSRFSGSGSGTRYSLKISGMQTEDEADYFCQQSYKYPLTFGSGTKLEIKRADAAPTVSIFPPSTEQLATGGASVVCLMNNFYPRDISVKWKIDGTERRDGVLDSVTDQDSKDSTYSMSSTLSLTKADYESHNLYTCEVVHKTSSSPVVKSFNRNEC"
0.49 nM,,,,"PI-HX-3061 (antibody, rat IgG2a, Parental rat hybridoma, rat IgG2a; cross reactive with human and mouse MARCO) heavy: EVQLVESGGGLVQPGSSLKLSCVASKFTFSNYGMNWIRQAPKKGLEWIALIYYNSNNKYYADSVKGRFTISRDNSKNTLYLEMNSLRSEDTAMYYCAKSLTGGSDYFDSWGQGVMVTVSSAETTAPSVYPLAPGTALKSNSMVTLGCLVKGYFPEPVTVTWNSGALSSGVHTFPAVLQSGLYTLTSSVTVPSSTWPSQTVTCNVAHPASSTKVDKKIVPRNCGGDCKPCICTGSEVSSVFIFPPKPKDVLTITLTPKVTCVVVDISQDDPEVHFSWFVDDVEVHTAQTRPPEEQFNSTFRSVSELPILHQDWLNGRTFRCKVTSAAFPSPIEKTISKPEGRTQVPHVYTMSPTKEEMTQNEVSITCMVKGFYPPDIYVEWQMNGQPQENYKNTPPTMDTDGSYFLYSKLNVKKEKWQQGNTFTCSVLHEGLHNHHTEKSLSHSP light: DVQMTQSPSYLAASPGESVSISCKASKSIGTFLAWYQEKPEKTNKLLIYSGSTLQSGTPSRFSGSGSGTDFTLTIRNLEPEDFAVYYCQQHDEYPFTFGSGTKLEIKRADAAPTVSIFPPSTEQLATGGASVVCLMNNFYPRDISVKWKIDGTERRDGVLDSVTDQDSKDSTYSMSSTLSLTKADYESHNLYTCEVVHKTSSSPVVKSFNRNEC"
